# Laboratory results: the supplement of paper PMC9112550, “Optimization of the antimicrobial peptide Bac7 by deep mutational scanning” (BMC Biology, 2022)
# System: Escherichia coli TOP10
# Experiment: shrunken log2 fold change of peptide-encoding DNA abundance (4.5 h post-induction vs induction); higher = less antimicrobial activity (less host growth inhibition)
# Conditions: time post-induction: 4.5 h; library: site-saturation at positions 5, 18, 19, 20
# 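Further: peptides expressed intracellularly from a pBAD plasmid library in pooled LB shake-flask culture, induced with 0.3% L-arabinose, DNA abundance read by NGS, three biological replicates, DESeq2 with apeglm shrinkage.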
row,Sequence,shrunken log2 fold change
1,RRIRCRPPRLPRPRPRPQNHPRP,-0.612
2,RRIRCRPPRLPRPRPRPTGHPRP,-0.113
3,RRIRKRPPRLPRPRPRPHCRPRP,-0.022
4,RRIRKRPPRLPRPRPRPKRHPRP,0.255
5,RRIRNRPPRLPRPRPRPAYKPRP,-0.128
6,RRIRQRPPRLPRPRPRPDYEPRP,0.0301
7,RRIRCRPPRLPRPRPRPFAQPRP,0.00363
8,RRIRTRPPRLPRPRPRPFSPPRP,-0.375
9,RRIRTRPPRLPRPRPRPQRTPRP,-0.296
10,RRIRGRPPRLPRPRPRPVGQPRP,0.145
11,RRIRTRPPRLPRPRPRPAMDPRP,-0.708
12,RRIRGRPPRLPRPRPRPYWSPRP,-0.251
13,RRIRQRPPRLPRPRPRPECDPRP,0.0401
14,RRIRNRPPRLPRPRPRPDLYPRP,-0.0459
15,RRIRWRPPRLPRPRPRPMLTPRP,0.391
16,RRIRQRPPRLPRPRPRPCQRPRP,-0.0113
17,RRIRERPPRLPRPRPRPVPFPRP,-0.229
18,RRIRCRPPRLPRPRPRPPSYPRP,-0.457
19,RRIRVRPPRLPRPRPRPLGVPRP,-0.116
20,RRIRMRPPRLPRPRPRPEGSPRP,3.63
21,RRIRFRPPRLPRPRPRPWKDPRP,-0.192
22,RRIRSRPPRLPRPRPRPFPQPRP,-0.201

row,Sequence,shrunken log2 fold change
1,RRIRHRPPRLPRPRPRPFSSPRP,0.107
2,RRIRVRPPRLPRPRPRPPKIPRP,-0.05
3,RRIRVRPPRLPRPRPRPKSQPRP,0.309
4,RRIRFRPPRLPRPRPRPTKDPRP,-0.196
5,RRIRDRPPRLPRPRPRPLFPPRP,-0.116
6,RRIRGRPPRLPRPRPRPRADPRP,1.17
7,RRIRLRPPRLPRPRPRPFPQPRP,-0.0558
8,RRIRTRPPRLPRPRPRPDYLPRP,-1.61
9,RRIRIRPPRLPRPRPRPMDHPRP,-0.0898
10,RRIRARPPRLPRPRPRPCCSPRP,0.0121
11,RRIRQRPPRLPRPRPRPKTVPRP,-0.093
12,RRIRPRPPRLPRPRPRPAWQPRP,0.277
13,RRIRCRPPRLPRPRPRPVPKPRP,0.339
14,RRIRMRPPRLPRPRPRPCNYPRP,0.0171
15,RRIRHRPPRLPRPRPRPPLQPRP,-0.127
16,RRIRIRPPRLPRPRPRPKDWPRP,0.299
17,RRIRTRPPRLPRPRPRPGNYPRP,0.0108
18,RRIRMRPPRLPRPRPRPDDRPRP,-0.012
19,RRIRCRPPRLPRPRPRPMQEPRP,-0.0194
20,RRIRLRPPRLPRPRPRPHMYPRP,-1.07
21,RRIRTRPPRLPRPRPRPAQAPRP,-0.0199
22,RRIRSRPPRLPRPRPRPNDTPRP,-0.437

row,Sequence,shrunken log2 fold change
1,RRIRARPPRLPRPRPRPKHAPRP,0.757
2,RRIRRRPPRLPRPRPRPQAIPRP,-0.0149
3,RRIRWRPPRLPRPRPRPAPEPRP,0.603
4,RRIRARPPRLPRPRPRPCITPRP,0.178
5,RRIRDRPPRLPRPRPRPSWVPRP,-0.211
6,RRIRHRPPRLPRPRPRPQFWPRP,0.115
7,RRIRHRPPRLPRPRPRPCRQPRP,-0.035
8,RRIRFRPPRLPRPRPRPFFCPRP,-0.206
9,RRIRTRPPRLPRPRPRPPAPPRP,0.592
10,RRIRERPPRLPRPRPRPIWWPRP,-0.0447
11,RRIRCRPPRLPRPRPRPFLGPRP,-0.305
12,RRIRMRPPRLPRPRPRPQREPRP,0.203
13,RRIRSRPPRLPRPRPRPCIAPRP,-0.22
14,RRIRHRPPRLPRPRPRPKCYPRP,-0.0358
15,RRIRCRPPRLPRPRPRPNRNPRP,-0.562
16,RRIRARPPRLPRPRPRPNKDPRP,-0.294
17,RRIRWRPPRLPRPRPRPQTQPRP,0.516
18,RRIRKRPPRLPRPRPRPAHCPRP,-0.0571
19,RRIRSRPPRLPRPRPRPWDDPRP,-0.0242
20,RRIRCRPPRLPRPRPRPCGQPRP,0.143
21,RRIRNRPPRLPRPRPRPWKRPRP,-0.0326
22,RRIRTRPPRLPRPRPRPNGQPRP,0.149

row,Sequence,shrunken log2 fold change
1,RRIRSRPPRLPRPRPRPDCPPRP,0.0922
2,RRIRYRPPRLPRPRPRPNWFPRP,-0.892
3,RRIRFRPPRLPRPRPRPQPIPRP,0.222
4,RRIRMRPPRLPRPRPRPGCPPRP,0.521
5,RRIRKRPPRLPRPRPRPIKYPRP,0.0425
6,RRIRFRPPRLPRPRPRPIYFPRP,-0.09
7,RRIRWRPPRLPRPRPRPIQGPRP,0.265
8,RRIRKRPPRLPRPRPRPELIPRP,0.0174
9,RRIRDRPPRLPRPRPRPFNKPRP,-1.45
10,RRIRCRPPRLPRPRPRPFPHPRP,-0.175
11,RRIRKRPPRLPRPRPRPLSSPRP,0.115
12,RRIRHRPPRLPRPRPRPWGVPRP,-0.141
13,RRIRSRPPRLPRPRPRPHKTPRP,-0.258
14,RRIRPRPPRLPRPRPRPEIRPRP,0.0106
15,RRIRLRPPRLPRPRPRPMWEPRP,0.00629
16,RRIRRRPPRLPRPRPRPHEIPRP,-0.0745
17,RRIRLRPPRLPRPRPRPLWYPRP,-0.191
18,RRIRKRPPRLPRPRPRPTRAPRP,1.2
19,RRIRCRPPRLPRPRPRPMQWPRP,0.226
20,RRIRSRPPRLPRPRPRPFEAPRP,0.14
21,RRIRGRPPRLPRPRPRPDGHPRP,0.471
22,RRIRFRPPRLPRPRPRPLTVPRP,-0.73

row,Sequence,shrunken log2 fold change
1,RRIRNRPPRLPRPRPRPAVIPRP,-0.277
2,RRIRWRPPRLPRPRPRPINCPRP,-0.889
3,RRIRPRPPRLPRPRPRPCVDPRP,-0.149
4,RRIRVRPPRLPRPRPRPWKCPRP,-0.173
5,RRIRKRPPRLPRPRPRPHGPPRP,0.0129
6,RRIRLRPPRLPRPRPRPPATPRP,0.725
7,RRIRYRPPRLPRPRPRPGQIPRP,-0.0348
8,RRIRCRPPRLPRPRPRPLTQPRP,0.189
9,RRIRTRPPRLPRPRPRPTFVPRP,-0.262
10,RRIRSRPPRLPRPRPRPMATPRP,0.0201
11,RRIRCRPPRLPRPRPRPPKVPRP,-0.138
12,RRIRPRPPRLPRPRPRPPPMPRP,0.52
13,RRIRVRPPRLPRPRPRPALTPRP,0.117
14,RRIRERPPRLPRPRPRPPNWPRP,0.368
15,RRIRHRPPRLPRPRPRPKLAPRP,-0.0576
16,RRIRSRPPRLPRPRPRPNEFPRP,0.00763
17,RRIRCRPPRLPRPRPRPKERPRP,0.238
18,RRIRVRPPRLPRPRPRPLFTPRP,-0.448
19,RRIRDRPPRLPRPRPRPFMEPRP,-0.148
20,RRIRYRPPRLPRPRPRPIEYPRP,-0.0912
21,RRIRVRPPRLPRPRPRPKCHPRP,-0.242
